Measurements from the supplement of paper PMC9116672.
± gives the standard deviation of the averaged measurements or the uncertainty stated by the source.

Columns and labels:
[1] = duplex formation entropy ΔS (Van't Hoff fit of HRM Tm); higher = smaller entropy loss on duplex formation; conditions: temperature for dG: 50 °C, NaCl: 500 mM (unadjusted)
Description: (§1)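 Duplex of the listed DNA strand with its complement, in 1x NNE buffer (500 mM NaCl, pH 7.0) with 1x EvaGreen. ΔH and ΔS come from a Van't Hoff linear fit of 1/Tm against ln(CT/4) over 1-20 uM, using HRM Tm values.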

[2] = duplex formation enthalpy ΔH (Van't Hoff fit of HRM Tm); higher = less exothermic duplex formation; conditions: temperature for dG: 50 °C, NaCl: 500 mM (unadjusted)
Description: as §1

[3] = duplex formation free energy ΔG50 (Van't Hoff fit of HRM Tm); higher = less stable duplex; conditions: temperature for dG: 50 °C, NaCl: 500 mM (unadjusted)
Description: as §1

[4] = duplex melting temperature (HRM, EvaGreen); higher = more stable duplex
Description: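 Listed DNA strand annealed 1:1 with its complementary strand (95 °C 5 min, 0.1 °C/s to 20 °C). Melted in 1x NNE buffer (500 mM NaCl, 10 mM Na2HPO4, 1 mM EDTA, pH 7.0) with 1x EvaGreen on a LightCycler96 (37 to 97 °C, 0.1 °C/s). Tm is the peak of -dF/dT at the stated total duplex concentration; 4 replicates are averaged. PS oligos are non-stereospecific (Rp/Sp mixtures).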

[5] = backbone: PO-PO (both strands phosphodiester DNA)
[6] = backbone: PS-PO (listed strand fully phosphorothioate, complement phosphodiester)
[7] = backbone: PS-PS (both strands fully phosphorothioate)
[8] = duplex concentration 1 µM, backbone: PO-PO (both strands phosphodiester DNA)
[9] = duplex concentration 1 µM, backbone: PS-PO (listed strand fully phosphorothioate, complement phosphodiester)
[10] = duplex concentration 1 µM, backbone: PS-PS (both strands fully phosphorothioate)
[11] = duplex concentration 2.5 µM, backbone: PO-PO (both strands phosphodiester DNA)
[12] = duplex concentration 2.5 µM, backbone: PS-PO (listed strand fully phosphorothioate, complement phosphodiester)
[13] = duplex concentration 2.5 µM, backbone: PS-PS (both strands fully phosphorothioate)
[14] = duplex concentration 5 µM, backbone: PO-PO (both strands phosphodiester DNA)
[15] = duplex concentration 5 µM, backbone: PS-PO (listed strand fully phosphorothioate, complement phosphodiester)
[16] = duplex concentration 5 µM, backbone: PS-PS (both strands fully phosphorothioate)
[17] = duplex concentration 7.5 µM, backbone: PO-PO (both strands phosphodiester DNA)
[18] = duplex concentration 7.5 µM, backbone: PS-PO (listed strand fully phosphorothioate, complement phosphodiester)
[19] = duplex concentration 7.5 µM, backbone: PS-PS (both strands fully phosphorothioate)
[20] = duplex concentration 10 µM, backbone: PO-PO (both strands phosphodiester DNA)
[21] = duplex concentration 10 µM, backbone: PS-PO (listed strand fully phosphorothioate, complement phosphodiester)
[22] = duplex concentration 10 µM, backbone: PS-PS (both strands fully phosphorothioate)
[23] = duplex concentration 15 µM, backbone: PO-PO (both strands phosphodiester DNA)
[24] = duplex concentration 15 µM, backbone: PS-PO (listed strand fully phosphorothioate, complement phosphodiester)
[25] = duplex concentration 15 µM, backbone: PS-PS (both strands fully phosphorothioate)
[26] = duplex concentration 20 µM, backbone: PO-PO (both strands phosphodiester DNA)
[27] = duplex concentration 20 µM, backbone: PS-PO (listed strand fully phosphorothioate, complement phosphodiester)
[28] = duplex concentration 20 µM, backbone: PS-PS (both strands fully phosphorothioate)

Sequence | duplex formation entropy ΔS [1, 5] [cal/mol/K] | duplex formation entropy ΔS [1, 6] [cal/mol/K] | duplex formation entropy ΔS [1, 7] [cal/mol/K] | duplex formation enthalpy ΔH [2, 5] [kcal/mol] | duplex formation enthalpy ΔH [2, 6] [kcal/mol] | duplex formation enthalpy ΔH [2, 7] [kcal/mol] | duplex formation free energy ΔG50 [3, 5] [kcal/mol] | duplex formation free energy ΔG50 [3, 6] [kcal/mol] | duplex formation free energy ΔG50 [3, 7] [kcal/mol] | duplex melting temperature [4, 8] [°C] | duplex melting temperature [4, 9] [°C] | duplex melting temperature [4, 10] [°C] | duplex melting temperature [4, 11] [°C] | duplex melting temperature [4, 12] [°C] | duplex melting temperature [4, 13] [°C] | duplex melting temperature [4, 14] [°C] | duplex melting temperature [4, 15] [°C] | duplex melting temperature [4, 16] [°C] | duplex melting temperature [4, 17] [°C] | duplex melting temperature [4, 18] [°C] | duplex melting temperature [4, 19] [°C] | duplex melting temperature [4, 20] [°C] | duplex melting temperature [4, 21] [°C] | duplex melting temperature [4, 22] [°C] | duplex melting temperature [4, 23] [°C] | duplex melting temperature [4, 24] [°C] | duplex melting temperature [4, 25] [°C] | duplex melting temperature [4, 26] [°C] | duplex melting temperature [4, 27] [°C] | duplex melting temperature [4, 28] [°C]
CTCAGAGTAGAGCCGA | -179 ± 6.5 | -183 ± 3.4 | -182 ± 8.6 | -70.2 ± 2.2 | -70.4 ± 1.1 | -68.5 ± 2.8 | -12.5 ± 0.13 | -11.45 ± 0.047 | -9.827 ± 0.057 | 63.68 ± 0.069 | 57.92 ± 0.21 | 49.9 ± 1.1 | 65.7 ± 0.74 | 60.75 ± 0.31 | 53.32 ± 0.14 | 68.22 ± 0.15 | 63.08 ± 0.2 | 55.65 ± 0.051 | 69.47 ± 0.26 | 64.34 ± 0.11 | 56.75 ± 0.12 | 70.41 ± 0.2 | 65.17 ± 0.17 | 57.39 ± 0.097 | 71.91 ± 0.23 | 66.49 ± 0.15 | 58.63 ± 0.12 | 72.85 ± 0.2 | 67.47 ± 0.082 | 59.42 ± 0.24
GATGCCGCAGCGACCTG | – | -192 ± 5.9 | -202 ± 3.8 | – | -75.7 ± 2.1 | -77.6 ± 1.3 | – | -13.6 ± 0.14 | -12.42 ± 0.065 | – | 67.1 | 61.35 ± 0.33 | 76.6 ± 1.4 | 69.756 ± 0.045 | 64.23 ± 0.086 | 78.68 ± 0.64 | 72.16 ± 0.23 | 66.19 ± 0.1 | 80.46 ± 0.37 | 73.33 ± 0.28 | 67.4 ± 0.078 | 81.03 ± 0.31 | 74.43 ± 0.15 | 68.25 ± 0.097 | 82.09 ± 0.41 | 75.63 ± 0.13 | 69.34 ± 0.12 | 82.88 ± 0.26 | 76.48 ± 0.17 | 70.24 ± 0.13
AGCTGAGCCTGCCGCC | -252 ± 13 | -174 ± 4.5 | -195 ± 4.6 | -98.2 ± 4.6 | -69.1 ± 1.6 | -75.3 ± 1.6 | -16.8 ± 0.39 | -13.04 ± 0.1 | -12.29 ± 0.078 | – | 65.9 ± 0.78 | 61.14 ± 0.19 | 77.27 ± 0.16 | 69.3 ± 0.33 | 64.02 ± 0.13 | 78.56 ± 0.24 | 71.58 ± 0.18 | 66.05 ± 0.17 | 79.697 ± 0.042 | 72.92 ± 0.22 | 67.37 ± 0.12 | 80.57 ± 0.19 | 73.99 ± 0.21 | 68.22 ± 0.11 | 81.65 ± 0.17 | 75.27 ± 0.28 | 69.27 ± 0.11 | 82.38 ± 0.13 | 76.21 ± 0.3 | 70.31 ± 0.28
GCTGAACTAACCACCA | -201 ± 9.6 | -192 ± 3.9 | -188 ± 7 | -77.7 ± 3.3 | -73 ± 1.3 | -69.9 ± 2.3 | -12.7 ± 0.18 | -10.92 ± 0.045 | -9.252 ± 0.03 | 62.4 ± 1.2 | 55.12 ± 0.072 | 47.5 ± 0.78 | 65.29 ± 0.31 | 57.81 ± 0.12 | 50.39 ± 0.32 | 67.03 ± 0.25 | 60.12 ± 0.057 | 52.54 ± 0.26 | 68.36 ± 0.31 | 61.33 ± 0.085 | 53.74 ± 0.18 | 69.23 ± 0.2 | 62.13 ± 0.097 | 54.62 ± 0.096 | 70.53 ± 0.31 | 63.33 ± 0.14 | 55.67 ± 0.093 | 71.61 ± 0.45 | 64.15 ± 0.058 | 56.62 ± 0.25
CCGCTCAGAGTAGAGA | -187 ± 3.2 | -193 ± 3.2 | -183 ± 8 | -72.8 ± 1.1 | -73.5 ± 1.1 | -68.9 ± 2.6 | -12.5 ± 0.059 | -11.31 ± 0.042 | -9.673 ± 0.048 | 62.75 ± 0.41 | 56.777 ± 0.05 | 49.2 ± 0.5 | 65.47 ± 0.19 | 59.67 ± 0.14 | 52.58 ± 0.28 | 67.54 ± 0.15 | 61.84 ± 0.13 | 54.81 ± 0.14 | 68.92 ± 0.084 | 63.04 ± 0.11 | 55.91 ± 0.17 | 69.87 ± 0.13 | 63.88 ± 0.14 | 56.68 ± 0.077 | 71.25 ± 0.081 | 65.05 ± 0.1 | 57.72 ± 0.067 | 72.15 ± 0.098 | 65.94 ± 0.14 | 58.67 ± 0.3
AGGAGTGAATGAAATGG | -179 ± 7 | -208 ± 4.8 | -201 ± 6.7 | -69.7 ± 2.4 | -78 ± 1.6 | -73.4 ± 2.2 | -11.71 ± 0.11 | -10.85 ± 0.05 | -8.33 ± 0.02 | 59.4 | 54.5 | 43.7 ± 0.16 | 62.1 ± 0.68 | 57.08 ± 0.11 | 46.44 ± 0.17 | 64.64 ± 0.23 | 59.096 ± 0.041 | 48.39 ± 0.29 | 65.704 ± 0.056 | 60.13 ± 0.11 | 49.32 ± 0.19 | 66.73 ± 0.088 | 61.02 ± 0.073 | 50.27 ± 0.12 | 68.03 ± 0.15 | 62.13 ± 0.11 | 51.3 ± 0.13 | 69.03 ± 0.084 | 62.93 ± 0.16 | 52.15 ± 0.22
ATAACTTACTCTCGCCT | -201 ± 16 | -190 ± 4 | -172 ± 6.5 | -77.8 ± 5.4 | -71.9 ± 1.4 | -64.9 ± 2.1 | -12.7 ± 0.29 | -10.65 ± 0.042 | -9.287 ± 0.031 | 63.6 ± 0.52 | 53.9 | 47.36 ± 0.27 | 65.26 ± 0.45 | 56.75 ± 0.23 | 50.73 ± 0.41 | 67.07 ± 0.61 | 59 ± 0.16 | 53.03 ± 0.18 | 68.39 ± 0.58 | 60.21 ± 0.15 | 54.3 ± 0.082 | 69.34 ± 0.46 | 61.01 ± 0.18 | 55.17 ± 0.085 | 70.85 ± 0.28 | 62.23 ± 0.12 | 56.32 ± 0.24 | 72.01 ± 0.25 | 63.109 ± 0.04 | 57.138 ± 0.039
TTTGGGTTAGTAAGAAGGCAGCAGTTGGGC | -517 ± 22 | -439 ± 21 | -377 ± 7.9 | -194 ± 7.9 | -163 ± 7.3 | -138 ± 2.7 | -26.6 ± 0.73 | -20.7 ± 0.54 | -15.88 ± 0.14 | 80.77 ± 0.16 | 73.49 ± 0.58 | 64.9 ± 0.6 | 81.98 ± 0.11 | 74.54 ± 0.53 | 66.58 ± 0.4 | 82.782 ± 0.065 | 75.49 ± 0.43 | 67.7 ± 0.32 | 83.39 ± 0.22 | 76.34 ± 0.31 | 68.34 ± 0.25 | 83.787 ± 0.08 | 76.74 ± 0.24 | 68.92 ± 0.12 | 84.24 ± 0.16 | 77.38 ± 0.2 | 69.54 ± 0.097 | 85 | 77.939 ± 0.056 | 70.01 ± 0.096
CACAGCGACATGTATGG | -218 ± 7.4 | -220 ± 4.1 | -216 ± 10 | -84.1 ± 2.5 | -83.1 ± 1.4 | -80 ± 3.5 | -13.7 ± 0.16 | -12.06 ± 0.059 | -10.12 ± 0.071 | 66.351 ± 0.017 | 59.17 ± 0.49 | 51.1 ± 0.65 | 68.17 ± 0.38 | 61.71 ± 0.23 | 54.15 ± 0.059 | 70.03 ± 0.34 | 63.56 ± 0.32 | 56.02 ± 0.1 | 71.11 ± 0.17 | 64.61 ± 0.28 | 56.91 ± 0.12 | 72.07 ± 0.21 | 65.347 ± 0.065 | 57.68 ± 0.091 | 73.27 ± 0.14 | 66.45 ± 0.11 | 58.539 ± 0.051 | 74.18 ± 0.2 | 67.43 ± 0.1 | 59.3 ± 0.12
